Test results published in article PMC9482650, “Quantitative fragmentomics allow affinity mapping of interactomes” (Nature Communications, 2022).

What was measured:
Assay in all cases: holdup assay
Design in all cases: key: below the threshold = too weak to quantify, mostly under pKd 3.1 to 4
GIPC3, Q8TF64 = target: GIPC3, Q8TF64
GRIP2_2, Q9C0E4 = target: GRIP2_2, Q9C0E4
MAGI1_3, Q96QZ7 = target: MAGI1_3, Q96QZ7
MAGI1_6, Q96QZ7 = target: MAGI1_6, Q96QZ7
MAGI3_4, Q5TCQ9 = target: MAGI3_4, Q5TCQ9
MPDZ_2, O75970 = target: T1, MPDZ_2, O75970
T1 sequence (O75970 252-347, limits assumed, looked up): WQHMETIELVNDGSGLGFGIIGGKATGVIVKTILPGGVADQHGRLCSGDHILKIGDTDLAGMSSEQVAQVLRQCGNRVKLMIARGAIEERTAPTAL

MPDZ_3, O75970 = target: T2, MPDZ_3, O75970
T2 sequence (O75970 372-473, limits assumed, looked up): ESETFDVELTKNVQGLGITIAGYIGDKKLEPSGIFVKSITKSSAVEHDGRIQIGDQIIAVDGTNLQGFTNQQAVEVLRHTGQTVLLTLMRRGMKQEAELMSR

MPDZ_7, O75970 = target: T3, MPDZ_7, O75970
T3 sequence (O75970 1146-1253, limits assumed, looked up): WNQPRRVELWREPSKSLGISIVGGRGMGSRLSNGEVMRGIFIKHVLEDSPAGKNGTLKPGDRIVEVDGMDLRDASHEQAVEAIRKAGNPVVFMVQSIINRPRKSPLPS

NHERF4_3, Q86UT5 = target: NHERF4_3, Q86UT5
Sequence of NHERF4_3, Q86UT5 (Q86UT5 325-412): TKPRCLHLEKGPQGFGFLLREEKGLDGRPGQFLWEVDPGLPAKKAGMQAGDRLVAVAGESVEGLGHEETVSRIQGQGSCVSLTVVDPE

O43166 = details: plain residues with an end cap or a label only (N-terminal biotin on a linker: ttds)
O60759 = details: plain residues with an end cap or a label only (N-terminal biotin on a linker: ttds)
O75970 = details: plain residues with an end cap or a label only (N-terminal biotin on a linker: ttds)
PARD3B_3, Q8TEW8 = target: PARD3B_3, Q8TEW8
Sequence of PARD3B_3, Q8TEW8 (Q8TEW8 490-594): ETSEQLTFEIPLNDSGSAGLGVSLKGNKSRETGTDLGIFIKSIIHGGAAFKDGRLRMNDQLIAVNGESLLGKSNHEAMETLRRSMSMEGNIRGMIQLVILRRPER

PDLIM4, P50479 = target: PDLIM4, P50479
Sequence of PDLIM4, P50479 (P50479 1-83): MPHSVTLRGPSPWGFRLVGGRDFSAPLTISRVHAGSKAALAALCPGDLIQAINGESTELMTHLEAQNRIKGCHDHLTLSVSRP

PDZD2_4, O15018 = target: T4, PDZD2_4, O15018
T4 sequence (O15018 723-823, limits assumed, looked up): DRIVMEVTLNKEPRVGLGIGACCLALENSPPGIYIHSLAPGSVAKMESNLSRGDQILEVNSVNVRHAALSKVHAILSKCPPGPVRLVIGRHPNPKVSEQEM

PDZD9, Q8IXQ8 = target: PDZD9, Q8IXQ8
Sequence of PDZD9, Q8IXQ8 (Q8IXQ8 23-120): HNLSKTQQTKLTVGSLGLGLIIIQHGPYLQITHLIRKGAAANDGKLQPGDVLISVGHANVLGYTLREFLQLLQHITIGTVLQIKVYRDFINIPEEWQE

PDZRN3_2, Q9UPQ7 = target: T5, PDZRN3_2, Q9UPQ7
T5 sequence (Q9UPQ7 414-513, limits assumed, looked up): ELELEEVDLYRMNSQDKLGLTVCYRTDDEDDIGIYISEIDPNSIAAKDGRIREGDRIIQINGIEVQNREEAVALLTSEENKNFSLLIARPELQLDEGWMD

PREX1_1, Q8TCU6 = target: PREX1_1, Q8TCU6
Sequence of PREX1_1, Q8TCU6 (Q8TCU6 608-718): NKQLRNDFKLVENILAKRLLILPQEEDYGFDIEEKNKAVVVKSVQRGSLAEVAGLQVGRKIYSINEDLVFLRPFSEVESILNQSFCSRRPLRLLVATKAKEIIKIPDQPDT

PTPN13_4, Q12923 = target: T6, PTPN13_4, Q12923
T6 sequence (Q12923 1783-1878, limits assumed, looked up): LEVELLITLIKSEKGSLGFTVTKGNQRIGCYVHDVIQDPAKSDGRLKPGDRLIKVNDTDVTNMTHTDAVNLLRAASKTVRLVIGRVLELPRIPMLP

Q12923 = details: plain residues with an end cap or a label only (N-terminal biotin on a linker: ttds)
Q6ZWJ1 = details: plain residues with an end cap or a label only (N-terminal biotin on a linker: ttds)
Q70Z35 = details: plain residues with an end cap or a label only (N-terminal biotin on a linker: ttds)
Q96JB8 = details: plain residues with an end cap or a label only (N-terminal biotin on a linker: ttds)
Q96SB3 = details: plain residues with an end cap or a label only (N-terminal biotin on a linker: ttds)
Q9H190 = details: plain residues with an end cap or a label only (N-terminal biotin on a linker: ttds)
Q9NR12 = details: plain residues with an end cap or a label only (N-terminal biotin on a linker: ttds)
Q9ULJ8 = details: plain residues with an end cap or a label only (N-terminal biotin on a linker: ttds)
Q9Y3R0 = details: plain residues with an end cap or a label only (N-terminal biotin on a linker: ttds)
SHROOM3, Q8TF72 = target: T7, SHROOM3, Q8TF72
T7 sequence (Q8TF72 20-120, limits assumed, looked up): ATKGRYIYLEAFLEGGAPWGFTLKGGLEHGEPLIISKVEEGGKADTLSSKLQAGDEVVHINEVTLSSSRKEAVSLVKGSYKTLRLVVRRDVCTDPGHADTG

SNTB2, Q13425 = target: T8, SNTB2, Q13425
T8 sequence (Q13425 110-208, limits assumed, looked up): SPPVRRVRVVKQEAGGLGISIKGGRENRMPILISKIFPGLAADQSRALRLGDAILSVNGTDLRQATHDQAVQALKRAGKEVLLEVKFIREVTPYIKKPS

TJP1_1, Q07157 = target: TJP1_1, Q07157
Sequence of TJP1_1, Q07157 (Q07157 18-120): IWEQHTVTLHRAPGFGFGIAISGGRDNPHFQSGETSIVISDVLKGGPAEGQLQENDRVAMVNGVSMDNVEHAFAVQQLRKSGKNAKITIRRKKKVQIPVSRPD

[1] = plain residues with an end cap or a label only (N-terminal biotin on a linker: ttds)
[2] = plain residues with an end cap or a label only (N-terminal biotin on a linker: none)

Sequence of GRIP2_2, Q9C0E4 (Q9C0E4 137-245): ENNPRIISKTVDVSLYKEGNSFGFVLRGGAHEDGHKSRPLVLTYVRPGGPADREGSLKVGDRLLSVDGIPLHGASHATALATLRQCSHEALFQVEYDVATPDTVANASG
Sequence of MAGI3_4, Q5TCQ9 (Q5TCQ9 716-815): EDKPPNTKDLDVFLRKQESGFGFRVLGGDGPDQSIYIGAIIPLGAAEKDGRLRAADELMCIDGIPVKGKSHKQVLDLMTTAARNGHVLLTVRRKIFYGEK
Sequence of MAGI1_6, Q96QZ7 (Q96QZ7 1146-1238): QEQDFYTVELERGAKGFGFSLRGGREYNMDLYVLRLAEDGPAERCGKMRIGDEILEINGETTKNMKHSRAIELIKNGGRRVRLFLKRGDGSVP
Sequence of MAGI1_3, Q96QZ7 (Q96QZ7 638-725): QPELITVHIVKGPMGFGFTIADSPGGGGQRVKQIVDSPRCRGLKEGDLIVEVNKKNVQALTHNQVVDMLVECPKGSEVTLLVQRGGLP
Sequence of GIPC3, Q8TF64 (Q8TF64 107-202): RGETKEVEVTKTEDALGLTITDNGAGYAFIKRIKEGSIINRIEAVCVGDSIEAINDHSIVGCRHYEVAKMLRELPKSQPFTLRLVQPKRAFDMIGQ

Binder	pKd (GIPC3, Q8TF64; [1])	pKd (GRIP2_2, Q9C0E4; [1])	pKd (MAGI1_3, Q96QZ7; [1])	pKd (MAGI1_6, Q96QZ7; [1])	pKd (MAGI3_4, Q5TCQ9; [1])	pKd (MPDZ_2, O75970; [1])	pKd (MPDZ_3, O75970; [1])	pKd (MPDZ_7, O75970; [1])	pKd (NHERF4_3, Q86UT5; [1])	pKd (PARD3B_3, Q8TEW8; [1])	pKd (PDLIM4, P50479; [1])	pKd (PDZD2_4, O15018; [1])	pKd (PDZD9, Q8IXQ8; [1])	pKd (PDZRN3_2, Q9UPQ7; [1])	pKd (PREX1_1, Q8TCU6; [1])	pKd (PTPN13_4, Q12923; [1])	pKd (Q96JB8)	pKd (SHROOM3, Q8TF72; [1])	pKd (SNTB2, Q13425; [1])	pKd (TJP1_1, Q07157; [1])	further results
CLDTSRETDL [KCNA5, P22460]	below the threshold	below the threshold	below the threshold	4.55	below the threshold	below the threshold	below the threshold	below the threshold	below the threshold	below the threshold	4.26	below the threshold	below the threshold	below the threshold	below the threshold	below the threshold	below the threshold	below the threshold	4.91	below the threshold	pKd (O43166): below the threshold; pKd (O60759): below the threshold; pKd (O75970): below the threshold; pKd (Q12923): below the threshold; pKd (Q6ZWJ1): below the threshold; pKd (Q70Z35): below the threshold; pKd (Q96SB3): below the threshold; pKd (Q9H190): below the threshold; pKd (Q9NR12): below the threshold; pKd (Q9ULJ8): below the threshold; pKd (Q9Y3R0): below the threshold
TGDTLEKFVEGL [CBP, Q92793]	–	–	below the threshold	below the threshold	below the threshold	below the threshold	4.11	below the threshold	3.86	below the threshold	below the threshold	below the threshold	–	–	4.22	–	below the threshold	below the threshold	below the threshold	below the threshold	–
RTRQRNETQV [HPV51-E6, P26554]	below the threshold	below the threshold	below the threshold	below the threshold	below the threshold	below the threshold	below the threshold	below the threshold	below the threshold	below the threshold	below the threshold	4.34	below the threshold	4.16	below the threshold	below the threshold	below the threshold	below the threshold	below the threshold	below the threshold	pKd (O43166): below the threshold; pKd (O60759): below the threshold; pKd (O75970): below the threshold; pKd (Q12923): below the threshold; pKd (Q6ZWJ1): below the threshold; pKd (Q70Z35): below the threshold; pKd (Q9H190): below the threshold; pKd (Q9NR12): below the threshold; pKd (Q9ULJ8): below the threshold; pKd (Q9Y3R0): below the threshold
SEKHFRETEV [HTLV1-TAX1, P03409]	–	below the threshold	4.75	4.41	3.79	below the threshold	3.92	4.44	3.83	below the threshold	4.54	below the threshold	below the threshold	below the threshold	below the threshold	below the threshold	–	below the threshold	–	below the threshold	–
RRVRKLPSTTL [RPS6KA1, Q15418]	below the threshold	below the threshold	below the threshold	below the threshold	3.59	below the threshold	3.81	below the threshold	below the threshold	below the threshold	below the threshold	below the threshold	below the threshold	below the threshold	–	below the threshold	–	below the threshold	–	below the threshold	–
DEDQHTQITKV [PTEN, P60484]	–	–	4.5	below the threshold	below the threshold	below the threshold	below the threshold	3.71	below the threshold	below the threshold	below the threshold	below the threshold	–	–	below the threshold	–	–	–	below the threshold	3.58	–
DSKPPLPPDEWV [MERS-E, K9N5R3]	–	–	–	–	–	–	–	–	–	–	–	–	–	–	–	–	–	–	–	–	pKd (GIPC3, Q8TF64; [2]): below the threshold; pKd (GRIP2_2, Q9C0E4; [2]): below the threshold; pKd (MAGI1_3, Q96QZ7; [2]): below the threshold; pKd (MAGI1_6, Q96QZ7; [2]): 4.66; pKd (MAGI3_4, Q5TCQ9; [2]): below the threshold; pKd (MPDZ_2, O75970; [2]): below the threshold; pKd (MPDZ_3, O75970; [2]): below the threshold; pKd (MPDZ_7, O75970; [2]): 3.83; pKd (NHERF4_3, Q86UT5; [2]): below the threshold; pKd (PARD3B_3, Q8TEW8; [2]): below the threshold; pKd (PDLIM4, P50479; [2]): 3.83; pKd (PDZD2_4, O15018; [2]): below the threshold; pKd (PDZD9, Q8IXQ8; [2]): below the threshold; pKd (PDZRN3_2, Q9UPQ7; [2]): below the threshold; pKd (PREX1_1, Q8TCU6; [2]): below the threshold; pKd (PTPN13_4, Q12923; [2]): 4.11; pKd (SHROOM3, Q8TF72; [2]): below the threshold; pKd (SNTB2, Q13425; [2]): below the threshold; pKd (TJP1_1, Q07157; [2]): below the threshold
